The values below come from the DeepSol protein solubility set.

This data set can be described thus: soluble on expression in E. coli; label from the status in PepcDB or PDB records.
In the case of “MGSDKIHHHHHHMKYLLLIPDGMADWEVEELDGRTPLEVAETENMDFLAKEGACGIAKTVPDGFEPGSDVANLTILGVDVRKHYTGRGPIEALARGVKGKLVFRCNLVKVEDGVMVDYSGGRISDEEARKVIEELNRAKPYDFVKFYAGKSYRNLLVINKDFRDDVKTFPPHDITGKEIDKHLPSGGELAELLKELMGWSAEILPEITDKANMIWPWGGGRMPSFPNFGQRYGLRGAMITEVDLLEGIARGMGMEVVQVEGITGYIDTNYRGLVRETARALEEHDFVVLHTEGIDEVGHEGDAELKVRAIELYDSKIVGKLLNKVDLDETRILLLPDHPTPVKVKTHVAEPVPFTLYGRGRDEVKVYTEKSCRRGKFGLVDGLRLMDLLIKK”, the “soluble on expression in E. coli” value was “not soluble”.
Then “MTELRVYLLIEALQPQFAACLSSPTRARGYPAFAGQSSLIIEVSPALAIHRVTDLALKSAPAMEPGILYTERQFGLLELHADSLEKLNAAGQAILDGMGAKPEDQLKPQILYHDIIENLSDQHAIILNRSREASILVPGVALLIYEMAPALFACVAANEAERAVPRAVINDVQMMGATGRVFMSGSLAEMRLARETITAKLESIPGRQ”, with “not soluble”; and “MSLTQMEMARKGVVSDEMKKVAEYEGVDVEIVRQKLAEGRAVLPKNKLHRIERPMIVGEGFSVKVNANIGTSQGFSSLEEEKEKARVAIEYGADSLMVLSTWGDLREIRRAIVEMSPVPVGSVPIYDSAVRSYQMKKNVVDFSEKDFFDMVIAHAEDGIDFMTIHVGVTRRVLDRIKSSRRVLKIVSRGGAIIAGWMIKNNKENPFYEHFDELLDIAKDYDITLSLGDGMRPGAVVDASDAQQFEELFVMGELVERAREKGVQVMLEGPGHVPLNEVEMNVRLMKKIGKGAPIFLLGPLPTDRAMGYDHIACAIGGALAGYYGADFLCYVTPSEHISLPDVEDVREGVIASKIAAIVADVARGNKKAWELEKKMALARKNFDWETMFSLSLGKDVAKKKYEERPYPDKGCSMCGPFCAIKIAEEFSEGHHHHHH”, with “soluble”.
With “MSLMKNMARKNQKAPWEEEEEIIWVSRTELKNDMLALQKLGEELVELKPSALAKFPLPEDLAEAIKDAQRFKNEARRRQLQYIGKLMRHIDPEPLQAALDKLRNKHSQTTALLHKLEQLRDRIVAEGDSAIEVAMEQYPEADRQRLRLLARQASKEKAGNKPPKSSREIFQLLKEAMLAKQEIEEESEDDLDSAEEGHHHHHH”, the “soluble on expression in E. coli” value is “soluble”.
Consider “MGSDKIHHHHHHMRKNRITEMLATASTIVLDGALATELEARGCDLTDPLWSAKVLVENPALIYQVHFDYFKAGAQCAITASYQATPQGFEARGYSEAESLALIAKSVQLAAQARDDYRRDNTQAGTLLVAGSVGPYGAYLADGSEYRGDYQLPQADMMAFHRPRIAALHEAGADLLACETLPSFAEIEALIALLAEFPQAQAWFSFTLRDSEHLSDGTPLRTVLERVNACSQVVAVGLNCIALEKVTPALMHLSSLTDLPLVVYPNSGEQYDAVTKTWSSAHDTACSLTAYLPEWQTAGARLIGGCCRTTPADIAGIARCCQQ”, for which the “soluble on expression in E. coli” value is given as “not soluble”.
With “GMELTALDKLEIMELAARFEMSLDKEDVENYLATFASDGALQGFWGIAKGKEELRQGFYAMLDTFARGKRHCSSNAIIQGNYDEATMESYLTVVNREDLNRAGSAFVKDQVRKINGKWYLILRQIEVDPSLPLLQQSQQAGANA”, the “soluble on expression in E. coli” value is “soluble”.
Consider “MTYIIREMKQEDIHAVQSVAKIAWHDTYEGIIPREIQDSFLDEAYSDEKMKYRLKNTHLFVAEEEGEVIGFANFSPVRLQNEAELGAIYLLPDQQGKGIGSALLQRGIKALNGIRKLYIHVEAANEKGKRFYEAKGFAELEQFEEDFEGHMMQTVRMVLYV”, for which the “soluble on expression in E. coli” value is listed as “not soluble”.
Take “SLVQHFDTLLVNIGQLLPMESKGPKRGKEMSELQLLEHAALGIRDGKVAFIGTMVEADTFTANQMIDCQGKLVTPGLVDPHTHLIFGGSREHEMALKQQGVPYLEILKNGGGILATVEATRAASEEELITKAICHLNRMLSYGVTTIEAKSGYGLDRETEWKQLRAAKAVGEQHPIDIVSTFLGAHAIPTSHRNDPDRFLDEMADMLGEIKEQNLAEFVDIFTETGVFTVEQSRTFLQKAKERGFGLKLHADEIDPLGGAELAGELGAISADHLVGASDQGIQKMAAAGTIACLLPGTTFYLGKDTYARARDMIDQGLAVTISTDFNPGSSPTENLQLIMSIAALRLKMTPEEIWHAVTVNGAHAIGRGDTAGQLAVGRAADVVVWDAKNYYYVPYHYGVNHVHSVWKKGEVVYERRRAFEGLSISR”: the “soluble on expression in E. coli” value is “soluble”.
As for “MSLSSTNDTIRRLQRDLLFLQNELRFEKFVRQQHLQNIGKLHREHILDMAVESERQKLLLTNKRYKAQIELLNSEIDKHRSESQAALNRRVKWENDFNNKIKALREEKKAWKSEESELKSSIESLISQLESIRNSQIDIAFSKNQLELKLQLYETKLKEYEQHLSCVNISKKQVSSSSDTSFGNTKMDSSMILSNSEAVSDEQERELIESEKHRMKLESENLHLQANIELLKKDLEAINVVYEAKIFDLEKRLSSEANAPELHNPVNLNYDAQLSKISEIKENYDELLTRYRELEGKFLESQAEVEELKNFQKPLVDTGSSIHSSPGLQQSKFIIRNDSLHPKVGPPRRQSTDTSRSTFRQYEGHHHHHH”, the “soluble on expression in E. coli” value is given as “soluble”.
Take “MGSDKIHHHHHHMATQTDSEAALRIASGRKAFVEPLRLGERLKEIRLSNRWTLEDVSQRTGLARSTLSKIENDQISPTFSAVQKLIGGLGIDLPQLLTPPKPQSRTLGRRDLTRVGEGKQHPTPTYEHELLSWQLAQKRMIPFKTIVRARDFNEFSEWVRHDGEEFLMVLDGDIWLYTEFYEPLHLAQGDSIYFDSDMGHALISVSETDAVVLSVCTRGENA”: the “soluble on expression in E. coli” value was “not soluble”.
With “MATTVQLSDQSLRQLETLAIHTAHLIQPHGLVVVLQEPDLTISQISANCTGILGRSPEDLLGRTLGEVFDSFQIDPIQSRLTAGQISSLNPSKLWARVMGDDFVIFDGVFHRNSDGLLVCELEPAYTSDNLPFLGFYHMANAALNRLRQQANLRDFYDVIVEEVRRMTGFDRVMLYRFDENNHGDVIAEDKRDDMEPYLGLHYPESDIPQPARRLFIHNPIRVIPDVYGVAVPLTPAVNPSTNRAVDLTESILRSAYHCHLTYLKNMGVGASLTISLIKDGHLWGLIACHHQTPKVIPFELRKACEFFGRVVFSNISAQEDTETFDYRVQLAEHEAVLLDKMTTAADFVEGLTNHPDRLLGLTGSQGAAICFGEKLILVGETPDEKAVQYLLQWLENREVQDVFFTSSLSQIYPDAVNFKSVASGLLAIPIARHNFLLWFRPEVLQTVNWGGDPNHAYEATQEDGKIELHPRQSFDLWKEIVRLQSLPWQSVEIQSALALKKAIVNLILRQAEEHHHHHH”, the “soluble on expression in E. coli” value is reported as “soluble”.
To “MGSDKIHHHHHHMFGFRLSGGKGILQRSQVALVVMESTGGLEIPAAKAIRRAGIAVIIANPRQTHQFAQLQPLTKTDAKDAKMPAFFAQMTAQKEDSQTMPYQPPTEAEEVLEALVNRRNQSADMRTAEKNRLHQVHETQVGSVKQLIAHFDRLIDELDKQIDDHTHTHFDGKAQVAEQIKGIGSITTATLMAMLPELGRLSHKRIASLAGIAPHPRESEETKFKSRCFGGRSAVRKALYMATVAATRFEPLIRDFYQRLLSKGKPYKVAVTACMRKLLTISNTRMRDYFAENDTAENGIRTA” belongs “not soluble”; to “RIQKLREATDKVASGDYDIHLENSYGDEIGVLASDFNIMAKKLKQSRDEIERLEKRRRQFIADVSHELKTPLTTINGLVEGLNSHTIPEDKKDKCFSLISEETKRMLRLVKENLDYEKIRSQQITLNKLDVPLIEVFEIVKEHLQQQAEEKQNKLMIQVEDHVIVHADYDRFIQILVNITKNSIQFTQNGDIWLRGMEGYKETIIEIEDTGIGIPKEDIEHIWERFYKADISRTNTAYGEYGLGLSIVRQLVEMHQGTVEIKSE”, “not soluble”.
